Experimental data: PMC8298264, “Function of cofactor Akirin2 in the regulation of gene expression in model human neutrophil-like HL60 cells” (Bioscience Reports, 2021)

Test system: human HL60 cells
Assay: SWATH-MS proteomics, differential protein representation, akirin2 KO vs WT HL60 cells
Type: cell-based
Settings: Over-represented in KO; KO vs WT HL60 cells
Procedure: Total proteins were extracted from WT and akirin2 KO HL60 cells using the AllPrep DNA/RNA/Protein Mini Kit (Qiagen) and protein concentration was determined using the BCA Protein Assay with BSA (Sigma–Aldrich) as standard. Protein extracts (150 µg per sample, n=3 biological replicates) from each WT and KO cells were trypsin digested using the FASP Protein Digestion Kit (Expedeon Ltd., Abcam, Cambridge, U.K.) and sequencing grade trypsin (Promega, Madison, WI, U.S.A.) following manufacturer’s recommendations. The resulting peptides were finally desalted on to OMIX Pipette tips C18 (Agilent Technologies, Santa Clara, CA, U.S.A.), dried down and stored at −20 °C until mass spectrometry analysis. […] Three micrograms of each protein digest from the three biological replicates of WT and akirin2 KO HL60 cells were used for the generation of the reference spectral ion library as part of the SWATH-MS analysis.
Peptides were eluted in a 120-min gradient from 5 to 30% solvent B in solvent A followed by 15-min gradient from 30 to 60% solvent B in solvent A (solvent A: 0.1% formic acid in water, solvent B: 0.1% formic acid in acetonitrile) and directly injected into the mass spectrometer for analysis. For IDA experiments, the mass spectrometer was set to scanning full spectra (350–1400 m/z) using 250 ms accumulation time per spectrum, followed by up to 50 MS/MS scans (100–1500 m/z). Candidate ions with a charge state between +2 and +5 counts per second above a minimum threshold of 100 were isolated for fragmentation. One MS/MS spectrum was collected for 100 ms, before adding those precursor ions to the exclusion list for 15 s (mass spectrometer operated by Analyst TF 1.6, AB Sciex). Dynamic background subtraction was turned off. MS/MS analyses were recorded in high-sensitivity mode with rolling collision energy on and a collision energy spread of 5. For SWATH quantitative analysis, six independent samples (three replicates from WT and akirin2 KO HL60 cells, 5 µg each) were subjected to the cyclic DIA of mass spectra using the SWATH variable windows calculator (V 1.0, AB Sciex) and the SWATH acquisition method editor (AB Sciex), similar to established methods. […] For these experiments, a 50-ms survey scan (350–1400 m/z) was acquired at the beginning of each cycle, and SWATH–MS/MS spectra were collected from 100–1500 m/z for 70 ms at high-sensitivity mode, resulting in a cycle time of 3.6 s. Collision energy for each window was determined according to the calculation for a charge +2 ion-centered upon the window with a collision energy spread of 15. To create a spectral library of all the detectable peptides in the samples, the IDA MS raw files were combined and subjected to database search in unison using ProteinPilot software v. 5.0.1 (AB Sciex) with the Paragon algorithm. […] The detected protein threshold was set at 0.05. An independent false discovery rate (FDR) analysis, using the target–decoy approach provided by Protein Pilot (AB Sciex; https://sciex.com/products/software/proteinpilot-software), was used to assess the quality of identifications. Positive identifications were considered when identified proteins reached 1% of global FDR. […] Global normalization was performed according to the Total Area Sums (TAS) of all detected proteins in the samples. […] Heatmaps were prepared using the Heatmapper (http://www.heatmapper.ca/expression/) with average linkage and Euclidean distance measurement method.

Row | Molecule | Fold Change | Log (Fold Change)
1 | sp¦O14737¦PDCD5_HUMAN (protein, UniProt O14737 2-125, looked up) Programmed cell death protein …: ADEELEALRRQRLAELQAKHGDPGDAAQQEAKHREAEMRNSILAQVLDQSARARLSNLALVKPEKTKAVENYLIQMARYGQLSEKVSEQGLIEILKKVSQQTEKTTTVKFNRRKVMDSDEDDDY | 1.307 | 0.1162
2 | sp¦P60981¦DEST_HUMAN (protein, UniProt P60981 2-165, looked up) Destrin: ASGVQVADEVCRIFYDMKVRKCSTPEEIKKRKKAVIFCLSADKKCIIVEEGKEILVGDVGVTITDPFKHFVGMLPEKDCRYALYDASFETKESRKEELMFFLWAPELAPLKSKMIYASSKDAIKKKFQGIKHECQANGPEDLNRACIAEKLGGSLIVAFEGCPV | 1.321 | 0.1208
3 | sp¦Q9Y244¦POMP_HUMAN (protein, UniProt Q9Y244 1-141, looked up) Proteasome maturation protein: MNARGLGSELKDSIPVTELSASGPFESHDLLRKGFSCVKNELLPSHPLELSEKNFQLNQDKMNFSTLRNIQGLFAPLKLQMEFKAVQQVQRLPFLSSSNLSLDVLRGNDETIGFEDILNDPSQSEVMGEPHLMVEYKLGLL | 1.341 | 0.1275
4 | sp¦Q16543¦CDC37_HUMAN (protein, UniProt Q16543 1-378, looked up) Hsp90 co-chaperone Cdc37: MVDYSVWDHIEVSDDEDETHPNIDTASLFRWRHQARVERMEQFQKEKEELDRGCRECKRKVAECQRKLKELEVAEGGKAELERLQAEAQQLRKEERSWEQKLEEMRKKEKSMPWNVDTLSKDGFSKSMVNTKPEKTEEDSEEVREQKHKTFVEKYEKQIKHFGMLRRWDDSQKYLSDNVHLVCEETANYLVIWCIDLEVEEKCALMEQVAHQTIVMQFILELAKSLKVDPRACFRQFFTKIKTADRQYMEGFNDELEAFKERVRGRAKLRIEKAMKEYEEEERKKRLGPGGLDPVEVYESLPEELQKCFDVKDVQMLQDAISKMDPTDAKYHMQRCIDSGLWVPNSKASEAKEGEEAGPGDPLLEAVPKTGDEKDVSV | 1.314 | 0.1187

Same assay, conditions: SWATH-MS, akirin2 KO vs WT HL60 cells; over-represented in KO

Row | Molecule | Fold Change | Log (Fold Change)
5 | Myristoylated alanine-rich C-kinase substrate (protein, UniProt P29966 2-332, looked up) Myristoylated alanine-rich …: GAQFSKTAAKGEAAAERPGEAAVASSPSKANGQENGHVKVNGDASPAAAESGAKEELQANGSAPAADKEEPAAAGSGAASPSAAEKGEPAAAAAPEAGASPVEKEAPAEGEAAEPGSPTAAEGEAASAASSTSSPKAEDGATPSPSNETPKKKKKRFSFKKSFKLSGFSFKKNKKEAGEGGEAEAPAAEGGKDEAAGGAAAAAAEAGAASGEQAAAPGEEAAAGEEGAAGGDPQEAKPQEAAVAPEKPPASDETKAAEEPSKVEEKKAEEAGASAAACEAPSAAGPGAPPEQEAAPAEEPAAAAASSACAAPSQEAQPECSPEAPPAEAAE | 3.833 | 0.5836
6 | Inter-alpha-trypsin inhibitor heavy chain H2 (protein, UniProt P19823 55-702, looked up) Inter-alpha-trypsin inhibitor …: SLPGESEEMMEEVDQVTLYSYKVQSTITSRMATTMIQSKVVNNSPQPQNVVFDVQIPKGAFISNFSMTVDGKTFRSSIKEKTVGRALYAQARAKGKTAGLVRSSALDMENFRTEVNVLPGAKVQFELHYQEVKWRKLGSYEHRIYLQPGRLAKHLEVDVWVIEPQGLRFLHVPDTFEGHFDGVPVISKGQQKAHVSFKPTVAQQRICPNCRETAVDGELVVLYDVKREEKAGELEVFNGYFVHFFAPDNLDPIPKNILFVIDVSGSMWGVKMKQTVEAMKTILDDLRAEDHFSVIDFNQNIRTWRNDLISATKTQVADAKRYIEKIQPSGGTNINEALLRAIFILNEANNLGLLDPNSVSLIILVSDGDPTVGELKLSKIQKNVKENIQDNISLFSLGMGFDVDYDFLKRLSNENHGIAQRIYGNQDTSSQLKKFYNQVSTPLLRNVQFNYPHTSVTDVTQNNFHNYFGGSEIVVAGKFDPAKLDQIESVITATSANTQLVLETLAQMDDLQDFLSKDKHADPDFTRKLWAYLTINQLLAERSLAPTAAAKRRITRSILQMSLDHHIVTPLTSLVIENEAGDERMLADAPPQDPSCCSGALYYGSKVVPDSTPSWANPSPTPVISMLAQGSQVLESTPPPHVMRVEND | 3.859 | 0.5865
